In experiment [1] the target is huTREM-2 expressed as amino-terminal FLAG peptide fusion protein on transfected 293 cells (human) (UniProt Q9NZC2). Description: FACS of 293 cells transiently transfected with TREM-2-FLAG, stained with anti-FLAG mAb M2; isotype-matched control set to the lower quadrant.
The target of experiment [2] is huTREM-1 expressed as amino-terminal FLAG peptide fusion protein on transfected COS-7 or 293 cells (human) (UniProt Q9NP99). The experiment in a line: FACS of 293 cells transiently transfected with TREM-1-FLAG, stained with anti-FLAG mAb M2; isotype-matched control set to the lower quadrant.

For ANTI-FLAG mAb M2 (antibody), the percentage of cells stained (upper right quadrant) is 17.9% in experiment [1] and 21.5% in experiment [2].

The record behind these values is patent publication US20170320946A1.
